Reference: the Immune Epitope Database (IEDB)

Key:
HLA-A*01:01 = assay: IEDB peptide-MHC binding, purified MHC/competitive/radioactivity; ≥ and ≤ were set here for values at or beyond the usual limits of such assays; settings: source organism: Triticum aestivum
HLA-B*08:01 = assay: as above; settings: source organism: Triticum aestivum

IC50 (HLA-A*01:01) [nM]	IC50 (HLA-B*08:01) [nM]	Sequence
≥ 100000	161	LAMAMKIATA
≥ 100000	303	LEAIRSLVL
365	≥ 100000	VSFQQPQQQY
≥ 100000	73	QGMHILLPL
≥ 100000	223	MKTFLILAL
≥ 100000	368	MNIASASRL
103	≥ 100000	SSQVLQQSTY
≥ 100000	72	LQQCKPVSL
≥ 100000	162	VMRQQCCQQL
≥ 100000	48	AMAMKIATA
≥ 100000	246	LIPCRDVVL
≥ 100000	465	CAAIHTIIH
33500	25	LLQQSKPASL
≥ 100000	112	FPQQQRPFI
≥ 100000	91	LLSPRGKEL
≥ 100000	14	LLQQCKPVSL
≥ 100000	5.2	MAMKIATAA
≥ 100000	7.8	FLLQQCKPV
≥ 100000	286	WLQQQLVPQL
17100	353	QLEAIRSLV
